Source: patent US20040171585

Biological target: T1, HNF-4α (UniProt P41235)
T1 sequence: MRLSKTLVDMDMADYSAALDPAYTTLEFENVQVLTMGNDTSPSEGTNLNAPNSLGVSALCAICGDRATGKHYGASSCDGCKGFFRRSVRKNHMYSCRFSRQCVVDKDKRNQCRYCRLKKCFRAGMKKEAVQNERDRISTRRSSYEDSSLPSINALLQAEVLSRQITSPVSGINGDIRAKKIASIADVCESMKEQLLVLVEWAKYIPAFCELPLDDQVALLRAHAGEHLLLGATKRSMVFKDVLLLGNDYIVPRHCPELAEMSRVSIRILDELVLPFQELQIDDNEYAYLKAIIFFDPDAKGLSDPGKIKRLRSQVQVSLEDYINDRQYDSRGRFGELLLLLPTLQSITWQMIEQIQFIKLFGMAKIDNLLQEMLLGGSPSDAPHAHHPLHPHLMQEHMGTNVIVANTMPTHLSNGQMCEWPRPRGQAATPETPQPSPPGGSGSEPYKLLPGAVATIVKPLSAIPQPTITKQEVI
Experiment: cell_activity
Details: CAT reporter with TK promoter and one to three C3P copies, COS-7, no added fatty acids

Sequence: GCAGGTGACCTTTGCCCAGCGCC (double strand) [C3P element of apo CIII promoter (-87/-66)]
- activity (fold activation): 7
